This note sets out measurements from paper PMC8938331 (Molecular Metabolism, 2022).

The target in test [1] is T1, Recombinant mouse MD2 (Beijing ABIOCENTER) (mouse, UniProt Q9JHF9 19-160).
T1 sequence (looked up): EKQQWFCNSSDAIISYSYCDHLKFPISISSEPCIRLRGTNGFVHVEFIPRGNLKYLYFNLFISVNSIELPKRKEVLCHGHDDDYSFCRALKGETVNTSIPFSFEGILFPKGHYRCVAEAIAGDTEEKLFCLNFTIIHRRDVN
As to the kind of experiment: SPR. A general note: Surface plasmon resonance follows binding to a sensor surface in real time, without labels.

The target in test [2] is T2, Recombinant mouse TLR4 (R&D system) (mouse, UniProt Q9QUK6 26-638).
T2 sequence (looked up): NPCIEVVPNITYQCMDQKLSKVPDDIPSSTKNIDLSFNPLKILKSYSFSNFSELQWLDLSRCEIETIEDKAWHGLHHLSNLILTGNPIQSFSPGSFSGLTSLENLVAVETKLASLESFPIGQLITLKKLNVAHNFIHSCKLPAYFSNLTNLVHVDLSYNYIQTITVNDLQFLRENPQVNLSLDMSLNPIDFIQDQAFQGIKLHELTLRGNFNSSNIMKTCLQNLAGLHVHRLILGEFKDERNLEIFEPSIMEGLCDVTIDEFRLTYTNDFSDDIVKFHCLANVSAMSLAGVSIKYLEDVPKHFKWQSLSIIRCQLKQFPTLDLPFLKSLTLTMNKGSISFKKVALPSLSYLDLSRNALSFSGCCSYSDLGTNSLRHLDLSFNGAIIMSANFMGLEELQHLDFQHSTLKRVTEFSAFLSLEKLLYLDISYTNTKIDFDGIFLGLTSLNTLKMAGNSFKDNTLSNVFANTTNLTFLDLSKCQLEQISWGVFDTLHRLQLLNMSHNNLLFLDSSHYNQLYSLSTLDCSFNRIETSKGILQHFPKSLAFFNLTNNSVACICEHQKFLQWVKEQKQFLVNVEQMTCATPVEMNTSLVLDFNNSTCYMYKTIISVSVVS
As to the kind of experiment: SPR.

B1: Mouse serum amyloid A1 (residues 19-122), recombinant (natural protein, UniProt P05366 19-122, looked up)
chain: GGFFSFVHEAFQGAGDMWRAYTDMKEANWKNSDKYFHARGNYDAAQRGPGGVWAAEKISDGREAFQEFFGRGHEDTIADQEANRHGRSGKDPNYYRPPGLPDKY
For the molecule B1, the values for the Kd in test [1] and in test [2] were 123 nM and 497 nM, respectively.
